Test results as given in publication PMC10912764.

How the values were obtained:
[1] = molecular target: amyloid-β peptide Aβ (1–42) (UniProt P05067)
[2] = molecular target: amyloid-β peptide Aβ (1–42) (UniProt P05067); remark: listed apart in the source

Chain of E. coli CsgA protein with a C-terminal 6× His tag (P28307 21-151): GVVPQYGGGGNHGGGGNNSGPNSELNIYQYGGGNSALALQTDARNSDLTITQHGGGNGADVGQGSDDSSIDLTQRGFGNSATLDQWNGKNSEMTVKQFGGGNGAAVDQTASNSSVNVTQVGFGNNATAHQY

For “E. coli CsgA protein with a C-terminal 6× His tag (from UniProt P28307 21-151) (natural protein)”, the inhibition of Aβ aggregation (ThT fluorescence; 75 µM Aβ with 10 µM CsgA), as given in the legend [1] was 47%, the inhibition of Aβ aggregation (ThT fluorescence; 75 µM Aβ with 10 µM CsgA, excess Aβ 7.5:1) [2] was 43% and the lag phase of Aβ aggregation (ThT) with CsgA; approximately 150 h without CsgA [2] was 175 h.
